Reference: paper PMC4333402 (Nucleic Acids Research, 2014)

Target: the molecule itself
Experiment: crystal structure

B1: Pyrococcus furiosus Cmr4 (natural protein, UniProt Q8U1S9 1-295, looked up)
chain: MKAYLVGLYTLTPTHPGSGTELGVVDQPIQRERHTGFPVIWGQSLKGVLRSYLKLVEKVDEEKINKIFGPPTEKAHEQAGLISVGDAKILFFPVRSLKGVYAYVTSPLVLNRFKRDLELAGVKNFQTEIPELTDTAIASEEITVDNKVILEEFAILIQKDDKGILESVVKAIEQAFGNEMAEKIKGRIAIIPDDVFRDLVELSTEIVARIRINAETGTVETGGLWYEEYIPSDTLFYSLILVTPRAKDNDMALIKEVLGKINGKYLQIGGNETVGKGFVKVTLKEVTNNGGTHAK
B1: binds.
